Experimental data published in patent publication US20250163121A1 (AKSTON BIOSCIENCES, published 2025).
Substitutions are numbered along the chain they refer to.

B1: insulin-Fc fusion protein of SEQ ID NO: 26 (insulin polypeptide SEQ ID NO: 5, linker SEQ ID NO: 9, canine IgGB Fc fragment SEQ ID NO: 12) (Fc fusion)
chain: FVNQHLCGSDLVEALALVCGERGFFYTDPTGGGPRRGIVEQCCHSICSLYQLENYCNGGGGAGGGGDCPKCPAPEMLGGPSVFIFPPKPKDTLLIARTPEVTCVVVDLDPEDPEVQISWFVDGKQMQTAKTQPREEQFNGTYRVVSVLPIGHQDWLKGKQFTCKVNNKALPSPIERTISKARGQAHQPSVYVLPPSREELSKNTVSLTCLIKDFFPPDIDVEWQSNGQQEPESKYRTTPPQLDEDGSYFLYSKLSVDKSRWQRGDTFICAVMHEALHNHYTQESLSHSPG
notes: Disulfide-linked homodimer made in HEK293 cells; 93% homodimer
B2: insulin-Fc fusion protein of SEQ ID NO: 29 (SEQ ID NO: 26 with the mutation cNg-NB139-S; canine IgGB Fc fragment SEQ ID NO: 15) (Fc fusion)
chain: B1 chain with N139S
notes: Non-glycosylated homodimer made in HEK293 cells; 98.3% homodimer; also called cNg-S
B3: insulin-Fc fusion protein of SEQ ID NO: 31 (SEQ ID NO: 26 with des hinge D and the mutation cNg-NB138-K; canine IgGB Fc fragment SEQ ID NO: 16) (Fc fusion)
chain: FVNQHLCGSDLVEALALVCGERGFFYTDPTGGGPRRGIVEQCCHSICSLYQLENYCNGGGGAGGGGCPKCPAPEMLGGPSVFIFPPKPKDTLLIARTPEVTCVVVDLDPEDPEVQISWFVDGKQMQTAKTQPREEQFKGTYRVVSVLPIGHQDWLKGKQFTCKVNNKALPSPIERTISKARGQAHQPSVYVLPPSREELSKNTVSLTCLIKDFFPPDIDVEWQSNGQQEPESKYRTTPPQLDEDGSYFLYSKLSVDKSRWQRGDTFICAVMHEALHNHYTQESLSHSPG
notes: Non-glycosylated homodimer made in HEK293 cells; 98.1% homodimer; also called cNg-K with des hinge D
B4: insulin-Fc fusion protein of SEQ ID NO: 22 (insulin polypeptide SEQ ID NO: 5, linker SEQ ID NO: 9, canine IgGA Fc fragment SEQ ID NO: 11) (Fc fusion)
chain: FVNQHLCGSDLVEALALVCGERGFFYTDPTGGGPRRGIVEQCCHSICSLYQLENYCNGGGGAGGGGRCTDTPPCPVPEPLGGPSVLIFPPKPKDILRITRTPEVTCVVLDLGREDPEVQISWFVDGKEVHTAKTQSREQQFNGTYRVVSVLPIEHQDWLTGKEFKCRVNHIDLPSPIERTISKARGRAHKPSVYVLPPSPKELSSSDTVSITCLIKDFYPPDIDVEWQSNGQQEPERKHRMTPPQLDEDGSYFLYSKLSVDKSRWQQGDPFTCAVMHETLQNHYTDLSLSHSPG
notes: Disulfide-linked homodimer made in HEK293 cells

molecular target: T1, human insulin receptor (on human IM-9 cells) (human, UniProt P06213 28-1382); experiment: competition with biotinylated RHI on human IM-9 cells, flow cytometry, 4 C
T1 construct: whole, on cells; Endogenous receptor on IM-9 cells; the mature receptor is a processed alpha2-beta2 tetramer from one precursor; also called IR
Experimental: Biotinylated-RHI was diluted in FACS staining medium to a concentration of 1.25 μg/mL. 40 μL of the serially diluted test compound and 8 μL of 1.25 μg/mL Biotin-RHI were added into each well of a V bottom microtiter plate, mixed by slow vortexing, and placed on ice. 40 μL of an IM-9 cell suspension (8×10^6 cells/mL) was then added to each well by multichannel pipette, mixed again gently and incubated on ice for 30 min to allow competitive binding on the insulin receptor on IM-9 cells. Cells were then washed twice with 275 μL of ice-cold FACS wash buffer (HBSS/2 mM EDTA/0.1% Na-azide+0.5% horse serum) by centrifuging the V-bottom plate at 3000 rpm for 3 min and aspirating the supernatant. Cells were then resuspended in 40 μL of FACS staining medium containing 1:100 diluted Streptavidin-PE (Life Technologies) for 20 min on ice. Cells were then washed once with 275 μL of ice-cold FACS buffer and finally fixed with 3% paraformaldehyde for 10 min at room temp. Cells were then washed once with 275 μL of ice-cold FACS buffer and resuspended in 250 μl of FACS buffer for analysis.
The V-bottom plates containing cells were then analyzed on a Guava 8-HT flow cytometer (Millipore). Biotinylated-RHI binding to insulin receptor was quantitated by the median fluorescence intensity (MFI) of the cells on the FACS FL-2 channel for each concentration of the test compound. Control wells were labeled only with biotinylated-RHI and were used to calculate the percent (%) inhibition resulting from each test compound concentration. The % inhibition by test compounds of biotinylated-RHI binding on IM-9 cells was plotted against log concentrations of the test compound, and the resulting IC50 values were calculated using GraphPad Prism (GraphPad Software, La Jolla, CA) for the test compounds. Lower IC50 values of the test compound therefore indicate greater levels of biotinylated-RHI inhibition at lower concentrations indicating stronger binding of the insulin-Fc fusion protein to the insulin receptor. A control compound, such as unlabeled recombinant human insulin (RHI) was also used as an internal standard to generate an RHI IC50 against which a given compound IC50 could be ratioed (IC50(compound)/IC50(RHI)). Lower IC50 ratios have more similar binding to RHI (stronger binding to insulin receptor), while higher IC50 ratios have weaker binding to the insulin receptor relative to RHI.

T1 sequence (P06213 28-1382): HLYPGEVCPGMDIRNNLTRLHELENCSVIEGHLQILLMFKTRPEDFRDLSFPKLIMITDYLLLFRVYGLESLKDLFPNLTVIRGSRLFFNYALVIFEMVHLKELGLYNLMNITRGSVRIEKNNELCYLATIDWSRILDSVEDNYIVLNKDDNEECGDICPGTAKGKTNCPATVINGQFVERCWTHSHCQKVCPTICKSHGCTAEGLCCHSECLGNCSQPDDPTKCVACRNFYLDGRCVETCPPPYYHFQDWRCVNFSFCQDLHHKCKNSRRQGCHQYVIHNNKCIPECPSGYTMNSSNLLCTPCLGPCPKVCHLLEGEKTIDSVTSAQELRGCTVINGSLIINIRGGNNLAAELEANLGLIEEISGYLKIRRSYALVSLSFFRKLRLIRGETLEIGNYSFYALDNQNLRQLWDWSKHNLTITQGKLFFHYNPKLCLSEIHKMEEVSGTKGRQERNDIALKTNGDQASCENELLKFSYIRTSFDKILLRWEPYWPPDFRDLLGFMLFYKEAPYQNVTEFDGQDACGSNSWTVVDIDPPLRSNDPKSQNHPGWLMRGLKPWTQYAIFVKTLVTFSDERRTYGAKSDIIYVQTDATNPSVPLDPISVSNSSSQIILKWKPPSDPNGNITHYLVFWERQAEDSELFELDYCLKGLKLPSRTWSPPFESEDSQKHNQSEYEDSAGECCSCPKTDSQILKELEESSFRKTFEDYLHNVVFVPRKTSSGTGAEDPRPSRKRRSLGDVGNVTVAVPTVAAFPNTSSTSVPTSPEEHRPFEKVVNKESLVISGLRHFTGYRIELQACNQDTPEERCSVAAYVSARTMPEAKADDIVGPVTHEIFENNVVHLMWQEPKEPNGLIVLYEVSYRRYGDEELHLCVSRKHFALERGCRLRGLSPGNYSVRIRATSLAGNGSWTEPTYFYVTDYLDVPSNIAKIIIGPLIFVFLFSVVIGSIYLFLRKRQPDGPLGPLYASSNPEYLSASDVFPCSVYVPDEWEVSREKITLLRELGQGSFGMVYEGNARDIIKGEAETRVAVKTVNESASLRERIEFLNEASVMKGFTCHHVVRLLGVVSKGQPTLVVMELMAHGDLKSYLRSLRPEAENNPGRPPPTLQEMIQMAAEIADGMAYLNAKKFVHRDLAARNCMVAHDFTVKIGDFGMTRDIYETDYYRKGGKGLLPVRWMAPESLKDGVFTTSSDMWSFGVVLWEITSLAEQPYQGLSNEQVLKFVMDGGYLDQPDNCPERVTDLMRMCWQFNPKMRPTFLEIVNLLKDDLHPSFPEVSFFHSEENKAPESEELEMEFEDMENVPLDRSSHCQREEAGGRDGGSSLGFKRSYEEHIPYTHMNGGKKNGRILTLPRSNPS

IC50 [nM] | Binder
28 | B1
145 | B2
147 | B3
2730 | B4
